The results in this text go back to article PMC8427864, “Optimizing operational parameters for the enzymatic production of furandicarboxylic acid building block” (Microbial Cell Factories, 2021).

For one series, the system named is T1, O=Cc1ccc(C=O)o1.
T1 construct: synthetic gene in pET23b(+), E. coli BL21(DE3)pLysS, purified by two anion-exchange steps; FAD-containing; no tag mentioned
Description: AmplexRed/HRP-coupled H2O2 assay, continuous steady state. The format is biochemical, Methylovorus sp. MP688. As to conditions: 50 mM Tris/HCl, pH 7.0, air oxygen as co-substrate. An excerpt:
(§1) AmplexRed/HRP-coupled H2O2 assay, continuous steady state on HMFO (hydroxymethylfurfural oxidase) WT | The saturation profiles for all the variants discarded any inhibitory effect by these two substrates

Series [1] has as its system T2, O=Cc1ccc(CO)o1.
T2 construct: synthetic gene in pET23b(+), E. coli BL21(DE3)pLysS, purified by two anion-exchange steps; FAD-containing; no tag mentioned
Described as above. The format is biochemical, Methylovorus sp. MP688. The following applies: 50 mM Tris/HCl, pH 7.0, air oxygen as co-substrate.
Excerpt: as §1

In series [2] the target is T3, HMFO (hydroxymethylfurfural oxidase) WT (Methylovorus sp. MP688, UniProt E4QP00).
T3 construct: gene MPQ_0130; synthetic gene in pET23b(+), E. coli BL21(DE3)pLysS, purified by two anion-exchange steps; FAD-containing; no tag mentioned
T3 sequence (E4QP00 1-531): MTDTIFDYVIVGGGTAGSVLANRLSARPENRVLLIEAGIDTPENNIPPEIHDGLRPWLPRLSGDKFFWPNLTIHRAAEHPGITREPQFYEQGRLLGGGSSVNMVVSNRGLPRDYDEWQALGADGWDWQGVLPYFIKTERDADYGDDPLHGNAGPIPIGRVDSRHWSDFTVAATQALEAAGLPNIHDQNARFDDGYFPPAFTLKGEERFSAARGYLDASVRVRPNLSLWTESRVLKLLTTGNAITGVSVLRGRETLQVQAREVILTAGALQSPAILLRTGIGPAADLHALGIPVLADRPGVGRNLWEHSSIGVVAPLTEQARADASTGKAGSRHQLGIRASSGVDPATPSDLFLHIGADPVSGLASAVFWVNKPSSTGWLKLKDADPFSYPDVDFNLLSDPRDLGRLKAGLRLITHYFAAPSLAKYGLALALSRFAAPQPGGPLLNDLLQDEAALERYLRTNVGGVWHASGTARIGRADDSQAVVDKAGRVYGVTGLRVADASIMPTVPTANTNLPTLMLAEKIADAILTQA
Description: UV-visible spectra of folded enzyme and heat-released flavin. The format is binding. The following applies: flavin released at 95 °C, 5 min.

In series [3] the test system is T2, O=Cc1ccc(CO)o1. Description: AmplexRed/HRP-coupled H2O2 assay, continuous steady state. The format is biochemical, Methylovorus sp. MP688. As to conditions: 50 mM Tris/HCl, pH 7.0, air oxygen as co-substrate, 8BxHMFO (Methods print G356K).

Regarding “HMFO (hydroxymethylfurfural oxidase) WT (Methylovorus sp. MP688; W466F)”, in the series on O=Cc1ccc(C=O)o1, the Km is 1.8 ± 0.3 mM and the kcat was found to be 0.3 ± 0.01 min⁻¹. For the same compound, in the series on O=Cc1ccc(CO)o1 [1], the Km is given as 6.4 ± 0.5 mM and the kcat came out at 1.4 ± 0.03 min⁻¹.
Consider `Cc1cc2nc3c(=O)[nH]c(=O)nc-3n(C[C@H](O)[C@H](O)[C@H](O)COP(=O)(O)OP(=O)(O)OC[C@H]3O[C@@H](n4cnc5c(N)ncnc54)[C@H](O)[C@@H]3O)c2cc1C` [FAD], for which the “UV-visible spectra of folded enzyme and heat-released flavin” value in series [2] is “The spectra of the folded enzymes and the free flavin, obtained by heat treatment”.
In the case of “HMFO (hydroxymethylfurfural oxidase) WT (Methylovorus sp. MP688; V367R/W466F)”, the values for the Km with O=Cc1ccc(C=O)o1 and in the series on O=Cc1ccc(CO)o1 [1] were 4.9 ± 0.5 mM and 23.1 ± 2.8 mM, respectively. Moreover, the kcat was 1.5 ± 0.04 min⁻¹ in the series on O=Cc1ccc(C=O)o1 and 3.4 ± 0.2 min⁻¹ in the series on O=Cc1ccc(CO)o1 [1].
In the case of “HMFO (hydroxymethylfurfural oxidase) WT (Methylovorus sp. MP688; V367R)”, the Km was found to be 1.1 ± 0.2 mM in the series on O=Cc1ccc(C=O)o1 and 4.2 ± 0.3 mM in the series on O=Cc1ccc(CO)o1 [1]. The kcat in the series with O=Cc1ccc(C=O)o1 was 2.2 ± 0.1 min⁻¹; with O=Cc1ccc(CO)o1 [1], 44.8 ± 1.0 min⁻¹.
Regarding “HMFO (hydroxymethylfurfural oxidase) WT (Methylovorus sp. MP688; A419Y/A435E/G356H/H74Y/I73V/T414K/V367R/W466F)”, in the series on O=Cc1ccc(CO)o1 [3], the Km amounted to 17.1 ± 1.6 mM and the kcat turned out to be 5.4 ± 0.2 min⁻¹.
